Test results: article doi:10.1101/824060 (bioRxiv, 2019)

What was measured:
Gid9 = target: T1, Gid9 (S. cerevisiae, UniProt P40492 1-516); experiment: […]
T1 sequence: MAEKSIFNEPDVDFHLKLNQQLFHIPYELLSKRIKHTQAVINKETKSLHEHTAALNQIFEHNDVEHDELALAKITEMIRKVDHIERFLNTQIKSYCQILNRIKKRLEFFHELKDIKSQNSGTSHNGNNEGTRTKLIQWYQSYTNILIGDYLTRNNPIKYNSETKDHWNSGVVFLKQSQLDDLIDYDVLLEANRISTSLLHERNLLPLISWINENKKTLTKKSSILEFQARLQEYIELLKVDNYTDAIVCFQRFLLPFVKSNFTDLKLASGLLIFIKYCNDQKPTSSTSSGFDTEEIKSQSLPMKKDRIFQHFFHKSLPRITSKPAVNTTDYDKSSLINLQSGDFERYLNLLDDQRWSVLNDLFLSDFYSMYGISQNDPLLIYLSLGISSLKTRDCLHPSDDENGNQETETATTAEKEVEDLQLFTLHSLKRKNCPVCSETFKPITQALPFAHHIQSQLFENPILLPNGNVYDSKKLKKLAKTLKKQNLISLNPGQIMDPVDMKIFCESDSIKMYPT

[1] = target: T2, Gid1 (endogenous, in native GID^Ant) (S. cerevisiae (endogenous in strain …, UniProt P53076 1-958)); experiment: cryo-EM structure
T2 sequence: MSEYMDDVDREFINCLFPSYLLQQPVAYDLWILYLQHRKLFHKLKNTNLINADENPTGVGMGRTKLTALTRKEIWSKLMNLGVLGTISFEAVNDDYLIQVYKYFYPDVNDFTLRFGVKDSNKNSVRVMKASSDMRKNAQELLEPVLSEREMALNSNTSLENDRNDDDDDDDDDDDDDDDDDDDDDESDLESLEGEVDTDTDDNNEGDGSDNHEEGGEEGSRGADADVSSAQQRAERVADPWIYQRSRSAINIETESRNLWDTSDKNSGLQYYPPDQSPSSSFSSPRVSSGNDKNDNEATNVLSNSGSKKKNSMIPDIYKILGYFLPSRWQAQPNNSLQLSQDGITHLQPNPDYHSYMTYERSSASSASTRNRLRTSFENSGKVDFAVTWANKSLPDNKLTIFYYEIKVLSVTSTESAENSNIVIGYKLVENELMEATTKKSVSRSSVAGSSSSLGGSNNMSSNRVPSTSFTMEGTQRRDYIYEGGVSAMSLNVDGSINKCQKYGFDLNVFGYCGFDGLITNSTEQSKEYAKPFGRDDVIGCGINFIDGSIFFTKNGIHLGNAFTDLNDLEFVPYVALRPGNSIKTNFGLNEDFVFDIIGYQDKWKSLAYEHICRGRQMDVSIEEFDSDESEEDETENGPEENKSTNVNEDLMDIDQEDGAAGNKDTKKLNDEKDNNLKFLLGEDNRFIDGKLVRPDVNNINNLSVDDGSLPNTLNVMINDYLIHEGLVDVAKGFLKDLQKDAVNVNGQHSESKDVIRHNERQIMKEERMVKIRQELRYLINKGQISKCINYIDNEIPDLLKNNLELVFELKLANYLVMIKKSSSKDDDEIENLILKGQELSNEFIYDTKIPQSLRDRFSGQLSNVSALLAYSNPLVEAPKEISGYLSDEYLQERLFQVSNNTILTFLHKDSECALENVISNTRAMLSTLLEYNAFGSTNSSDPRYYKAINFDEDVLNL

[2] = target: T3, Gid9 (endogenous, in native GID^Ant) (S. cerevisiae (endogenous in strain …, UniProt P40492 1-516)); experiment: cryo-EM structure
T3 sequence: T1 sequence

Gid1 = target: T4, Gid1 (S. cerevisiae, UniProt P53076 1-958); experiment: […]
T4 sequence: T2 sequence

B1: Gid2 (natural protein)
chain: MSELLDSFETEFAKFYTDSNLEETNLQKCLDHTHEFKSQLKKLKAHLNKHIQESKPEVYNKLSDKEKQKFKRKRELIIEKLSKSQRQWDHSVKKQIKYVSQQSNRFNKSTLNKLKEFDIDSVYVNKLPKETMENVNEAIGYHILRYSIDNMPLGNKNEAFQYLKDVYGITNKESTEFIEMGQIVHDLKKGDTESCLKWCSNEMESLSSNHTALSSLKFDLYTLSAMQIVKHGNPVELYYQITQNAPLDCFRHREKELMQNVVPLLTKSLIGQPIEDIDSKVNKELKECTSLFIKEYCAAKHIFFDSPLFLIVLSGLISFQFFIKYKTIRELAHVDWTTKDELPFDVKLPDFLTHFHPIFICPVLKEETTTENPPYSLACHHIISKKALDRLSKNGTITFKCPYCPVNTSMSSTKKVRFVML
binding result (Gid9): binds

B2: Gid8 with 3X Flag tag at the C-terminus (endogenous, strain CRLY45) (natural protein)
chain: MTISTLSNETTKSGSCSGQGKNGGKDFTYGKKCFTKEEWKEQVAKYSAMGELYANKTIHYPLKIQPNSSGGSQDEGFATIQTTPIEPTLPRLLLNYFVSMAYEDSSIRMAKELGFIRNNKDIAVFNDLYKIKERFHIKHLIKLGRINEAMEEINSIFGLEVLEETFNATGSYTGRTDRQQQQQQQQFDIDGDLHFKLLLLNLIEMIRSHHQQENITKDSNDFILNLIQYSQNKLAIKASSSVKKMQELELAMTLLLFPLSDSADSGSIKLPKSLQNLYSISLRSKIADLVNEKLLKFIHPRIQFEISNNNSKFPDLLNSDKKIITQNFTVYNNNLVNGSNGTKITHISSDQPINEKMSSNEVTAAANSVWLNQRDGNVGTGSAATTFHNLENKNYWNQTSELLSSSNGKEKGLEFNNYYSSEFPYEPRLTQIMKLWCWCENQLHHNQIGVPRVEN
binding result [1]: binds | binding result [2]: binds

B3: Gid8 (natural protein)
chain: B2 chain
binding result (Gid9): binds | binding result (Gid1): binds
